In patent US20250147035A1, “METHODS FOR DETECTION OF POST-TRANSLATIONAL MODIFICATIONS” (Quantum-Si Incorporated, priority 2023, published 2025):
Primed or numbered codes have the meaning given here. Where no end group is shown, it is not given here. [ ]: non-standard residue; d: D form. pS = N[C@@H](COP(=O)(O)O)C(=O)O; Biotin′ = not defined here

Columns and labels:
[1] = tested on: pSAKLDEESILKQ-Biotin; assay: Octet binding assay of PTM-specific affinity reagent candidates, pSA peptide; details: fixed concentration of reagent
From the text: (§1) This Example characterizes an exemplary phosphorylated threonine recognizer for use in methods of the disclosure.

[2] = tested on: SAKLDEESILKQ-Biotin; assay: Octet binding assay of PTM-specific affinity reagent candidates, SA control peptide; design: unit not given here; details: fixed concentration of reagent
From the text: as §1

[3] = tested on: p[…]-Biotin; assay: Octet binding assay of PTM-specific affinity reagent candidates, pTQR peptide; details: fixed concentration of reagent
Procedure: (§2) This Example characterizes an exemplary phosphorylated threonine recognizer for use in methods of the disclosure. Octet binding assays at a fixed concentration of PTM-specific affinity reagent candidates were evaluated for binding with phospho-threonine, phospho-serine containing peptides (p[…]-Biotin; p[…]-Biotin; p[…]-Biotin), and control peptides without modifications ([…]-Biotin; […]-Biotin).

[4] = tested on: p[…]-Biotin; assay: Octet binding assay of PTM-specific affinity reagent candidates, pTA peptide; details: fixed concentration of reagent
From the text: as §1

[5] = tested on: […]-Biotin; assay: Octet binding assay of PTM-specific affinity reagent candidates, TA control peptide; details: fixed concentration of reagent
From the text: as §1

[6] = tested on: EFLN-pT-RFYK; assay: Octet binding platform, peptide-coated sensors dipped in PM12; details: phospho-threonine in the middle of the peptide
From the text: (§3) Next, control peptides ([…] and […]) were compared to model peptides (EFLN-pT-RFYK and p[…]) to evaluate phospho-threonine detection in different peptide motifs using a post-translational modification-specific (PTM-specific) affinity reagent that binds to phospho-threonine (PM12). Using the Octet binding platform, Octet sensors were coated with the peptide of interest and dipped in buffer containing the PTM-specific affinity reagent. […] In contrast, no shift was detected with the corresponding control peptides having unphosphorylated threonine (FIGS. 14A-14B).

[7] = tested on: pT-[…]; assay: as above; details: phospho-threonine at the N-terminus
From the text: as §3

[8] = tested on: EFLNTRFY; assay: Octet binding platform, peptide-coated sensors dipped in PM12, control peptide; details: unphosphorylated threonine
From the text: as §3

[9] = tested on: […]; assay: as above; details: unphosphorylated threonine
From the text: as §3

[10] = tested on: phospho-threonine peptides (p[…], QRFpTLAYPDDD, p[…]); format: binding
[11] = tested on: phospho-tyrosine (p[…]); assay: Polarization binding assays of PM12; details: FITC-labeled peptide, PM12 2 μM
Procedure: (§4) FIGS. 21A-21E provide data from polarization binding assays using a fixed concentration of PM12 with 2 μM and FITC-labeled peptides (p[…], p[…], p[…], QRFp[…], p[…]).
as §2

[12] = tested on: phospho-serine (p[…], p[…]); assay: Polarization and Octet binding assays of PM12; details: PM12 fixed concentration
Procedure: as §4, §2

[13] = tested on: phospho-threonine peptides; assay: Two-stage on-chip recognition run, phospho-threonine peptides; format: binding
Procedure: (§5) The phospho-threonine-specific affinity reagent, PM12, was evaluated for its ability to bind phospho-threonine residues residing in a range of motifs and at different positions in peptides (FIG. 15). To evaluate the PTM-specific affinity reagent, two-stage on-chip recognition runs were performed as described in Example 3. […] Peptide sequencing following PTM detection was not affected for either peptide (FIGS. 16A-16C).
(§6) This was followed by a second stage in which reagents for peptide sequencing (amino acid recognition molecules, cleaving reagents) were added to the chip to determine sequence information for the single peptide molecules. The plots shown at the top of FIGS. 16B and 16C are stacked plots showing the number of apertures (y-axis) with recognition taking place on the chip over the course of two-stage recognition runs (x-axis) performed in parallel with peptides having unphosphorylated threonine (FIG. 16B) or phosphorylated threonine (FIG. 16C). Each plot shown at the bottom of FIGS. 16B and 16C is an example binding trace from a single aperture on the chip.
(§7) Using the two-stage recognition run format described above, PTM recognition of phospho-threonine in various peptide motifs was evaluated. Phospho-threonine detection by the PTM-specific affinity reagent in different peptide motifs was evaluated with unphosphorylated threonine ([…], […], […], […], and […]) and compared to their phosphorylated threonine counterparts (QRF-pT-LAYPDDD, RFL-pT-LAYPDDD, FLA-pT-LAYPDDD, LAQ-PT-LAYPDDD, and AQR-pT-LAYPDDD). […] The PTM-specific affinity reagent was also evaluated for its ability to detect phospho-threonine residues at different positions in peptides. […] Similar results were obtained by performing the same two-stage chip run on phospho-threonine peptides spiked in the CDNF libraries (FIGS. 19A-19H).

[14] = tested on: unphosphorylated threonine peptides; assay: Two-stage on-chip recognition run, unphosphorylated threonine peptides; format: binding
Procedure: as §5, §6, §7

[15] = tested on: pT-ENR and pT-TDY peptides; assay: Two-stage chip run, phospho-threonine peptides spiked in the CDNF libraries; format: binding
Procedure: as §7

[16] = target: T1, p…-Biotin; assay: Octet (BLI), fixed reagent concentration
T1 sequence (peptide, phosphothreonine at 1; C-terminal Biotin): TAKLDEESILKQ

[17] = target: T2, …-Biotin; assay: Octet (BLI), fixed reagent concentration
T2 sequence (peptide, C-terminal Biotin): TAKLDEESILKQ

[18] = target: T3, pSAKLDEESILKQ-Biotin; assay: Octet (BLI), fixed reagent concentration;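 further: octet binding of candidate PTM-specific affinity reagents, each at one fixed concentration, to biotinylated phospho-Thr or phospho-Ser peptides, with unmodified biotinylated peptides serving as controls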
T3 peptide: [pS]AKLDEESILKQ-{Biotin′}
Procedure: Octet binding assays at a fixed concentration of PTM-specific affinity reagent candidates were evaluated for binding with phospho-threonine, phospho-serine containing peptides (p[sequence]-Biotin; p[sequence]-Biotin; p[sequence]-Biotin), and control peptides without modifications ([sequence]-Biotin; [sequence]-Biotin).

In the case of “PM06: Human/14-3-3 protein zeta/delta, SEQ ID NO: 6”, the “Octet binding assay response, pSA” value [1] is reported as 0.1 and the “Octet binding assay response, SA” value ([2]; SA = SAKLDEESILKQ-Biotin (control)) is reported as 0.1.

B1: PM12 (Mycobacterium tuberculosis/FhaA) (other)
chain: MGSAGTSVTLQLDDGSGRTYQLREGSNIIGRGQDAQFRLPDTGVSRRHLEIRWDGQVALLADLNSTNGTTVNNAPVQEWQLADGDVIRLGHSEIIVRMH
With B1 the “Octet binding assay response, SA” value ([2]; SA = […]-Biotin (control)) was 0.6, the “Octet binding assay response, pTQR” value [3] was 7.1 and the “Octet binding assay response, pTA” value [4] was 6.9. For the same molecule, the “Octet binding assay response, TA” value [5] was 0.6, the Octet shift [6] was 6.8 and the Octet shift [7] was 4.4. The Octet shift [8] was “no shift”, the Octet shift [9] was “no shift” and the specificity for phospho-threonine ([10]; FITC-labeled peptides, PM12 2 μM) was “high specificity for phospho-threonine”. For the same molecule, the “preference for phospho-threonine location in the peptide” value ([10]; internal vs N-terminal phospho-threonines, […]) was “slight preference for internal phospho-threonines”, the binding for phospho-tyrosine [11] was “low binding” and the binding for phospho-serine [12] was “low binding”. The “phospho-threonine detection in different peptide motifs” value ([13]; QRF-pT-, RFL-pT-, FLA-pT-, LAQ-pT-, AQR-pT-LAYPDDD, first 30 minutes) was “able to detect phospho-threonine in all five peptide motifs tested”, the “pulsing in the first 30 minutes” value ([13]; model peptide RFL-pT-LAYPDDD) was “fast pulsing” and the “recognition of phospho-threonine at different positions in peptides” value ([13]; pulsing in the first 30 minutes) was “recognized phospho-threonine residues at the N-terminus, the C-terminus, and in the middle of peptides”. The “signal for unphosphorylated threonine residues at corresponding positions” value ([14]; N-terminus, C-terminus, middle) was “no signal was observed”, the “signal with unphosphorylated peptide motifs” value ([14]; QRFT-, RFLT-, FLAT-, LAQT-, AQRT-LAYPDDD) was “no signal was detected” and the “pulsing in the first 30 minutes” value ([14]; control peptide […]) was “no pulsing”. The “discrimination of phosphorylated and unphosphorylated CDNF peptides” value ([15]; in the same run) was “able to discriminate between phosphorylated and unphosphorylated CDNF peptides”, the “binding to phospho-threonine CDNF peptides” value ([15]; peptide traces) was “binding to pT-ENR and pT-TDY peptides” and the Octet binding assay response [16] was 6.9. For the same molecule, the Octet binding assay response [17] was 0.6 and the “Octet binding assay response” value [18] was 0.7.
